The text below walks through data of US20220064291A1 (Merck Sharp & Dohme, published 2022).

T1: BTN2A2-Fc (recombinant human BTN2A2 Fc-chimera, HEK293-expressed, R&D Systems) (human, UniProt Q8WVV5 33-265)
T1 construct: Bought Fc-chimera; Biotinylated for the yeast display selections; not shown: Fc part of the bought Fc-chimera
T1 sequence (looked up): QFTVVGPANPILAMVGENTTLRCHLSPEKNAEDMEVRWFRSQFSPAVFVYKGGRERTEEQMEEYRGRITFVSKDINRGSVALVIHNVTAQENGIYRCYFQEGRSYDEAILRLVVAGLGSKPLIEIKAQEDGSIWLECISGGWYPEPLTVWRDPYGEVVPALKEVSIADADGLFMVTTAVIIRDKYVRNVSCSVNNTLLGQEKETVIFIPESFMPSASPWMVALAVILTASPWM

B1: Antibody 2A (antibody, IgG1, V domains shown)
VH: QVQLVQSGAEVKKPGASVKVSCKASGYTFTSYYIHWVRQAPGQGLEWMGIINPSGGSTSYAQKFQGRVTMTRDTSTSTVYMELSSLRSEDTAVYYCARATWEALHYWGQGTLVTVSS
VL: EIVMTQSPATLSVSPGERATLSCRASQSVGSNLAWYQQKPGQAPRLLIYGASTRATGIPARFSGSGSGTEFTLTISSLQSEDFAVYYCQQYYAWPRTFGGGTKVEIK
notes: isotype hIgG1-297A (IgG1 N297A); kappa germline VK3-15.1
B2: Antibody 2L (antibody, IgG1, V domains shown)
VH: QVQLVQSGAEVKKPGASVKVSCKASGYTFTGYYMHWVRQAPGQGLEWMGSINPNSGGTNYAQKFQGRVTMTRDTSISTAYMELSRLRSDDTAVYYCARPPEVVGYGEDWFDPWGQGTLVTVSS
VL: DIQMTQSPSSVSASVGDRVTITCRASQGISSWLAWYQQKPGKAPKLLIYAASNLQSGVPSRFSGSGSGTDFTLTISSLQPEDFATYYCQQGNDLPITFGGGTKVEIK
notes: isotype hIgG1-297A (IgG1 N297A); kappa germline VK1-12.7
B3: Antibody 3A (antibody, IgG1, V domains shown)
VH: QVQLVQSGAEVKKPGASVKVSCKASGYTFTSYYMHWVRQAPGQGLEWMGIINPGGGSTSYAQKFQGRVTMTRDTSTSTVYMELSSLRSEDTAVYYCARDAGHDYGDMAYWGQGTLVTVSS
VL: DIQMTQSPSTLSASVGDRVTITCRASQSISSWLAWYQQKPGKAPKLLIYKASSLESGVPSRFSGSGSGTEFTLTISSLQPDDFATYYCQQYRSFPTFGGGTKVEIK
notes: isotype hIgG1-297A (IgG1 N297A); kappa germline VK1-05.6
B4: Antibody 1F (antibody, IgG1, V domains shown)
VH: QVQLQESGPGLVKPSQTLSLTCTVSGGSISSGGYYWSWIRQHPGKGLEWIGSIYYSGSTYYNPSLKSRVTISVDTSKNQFSLKLSSVTAADTAVYYCARLHSSQSSSTYWGQGTLVTVSS
VL: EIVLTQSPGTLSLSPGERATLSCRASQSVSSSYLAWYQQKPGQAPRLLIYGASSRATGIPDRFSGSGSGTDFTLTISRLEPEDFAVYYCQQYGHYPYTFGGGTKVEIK
notes: isotype hIgG1-297A (IgG1 N297A); kappa germline VK3-20.0
B5: Antibody 1G (antibody, IgG1, V domains shown)
VH: QVQLVQSGAEVKKPGASVKVSCKASGYTFTSYGISWVRQAPGQGLEWMGWISAYNGNTNYAQKLQGRVTMTTDTSTSTAYMELRSLRSDDTAVYYCARLGATVAYFDLWGRGTLVTVSS
VL: B1 VL with M4L, G30S, Y91D, Y92V, A93Y, R96F
notes: isotype hIgG1-297A (IgG1 N297A); kappa germline VK3-15.10
B6: Antibody 3B (antibody, IgG1, V domains shown)
VH: QVQLVQSGAEVKKPGASVKVSCKASGYTFTSYYMHWVRQAPGQGLEWMGIINPSGGSTSYAQKFQGRVTMTRDTSTSTVYMELSSLRSEDTAVYYCARPSGDYSGYDALDVWGQGTMVTVSS
VL: EIVLTQSPATLSLSPGERATLSCRASQSVSSYLAWYQQKPGQAPRLLIYDASNRATGIPARFSGSGSGTDFTLTISSLEPEDFAVYYCQQDPYWPITFGGGTKVEIK
notes: isotype hIgG1-297A (IgG1 N297A); kappa germline VK3-11.0
B7: BTN3A1-Fc (recombinant human BTN3A1 Fc-chimera, HEK293-expressed, R&D Systems) (Fc fusion, not shown: a dimerising Fc or GST)
chain: not shown

Numbering of substitutions follows the chain as printed. Names may count otherwise.

The target in one assay is T2, BTN3A2-Fc (recombinant human BTN3A2 Fc-chimera, HEK293-expressed, R&D Systems) (human, UniProt P78410 30-248).
T2 construct: Bought Fc-chimera; Biotinylated for the yeast display selections; not shown: Fc part of the bought Fc-chimera
T2 sequence (P78410 30-248, change not shown): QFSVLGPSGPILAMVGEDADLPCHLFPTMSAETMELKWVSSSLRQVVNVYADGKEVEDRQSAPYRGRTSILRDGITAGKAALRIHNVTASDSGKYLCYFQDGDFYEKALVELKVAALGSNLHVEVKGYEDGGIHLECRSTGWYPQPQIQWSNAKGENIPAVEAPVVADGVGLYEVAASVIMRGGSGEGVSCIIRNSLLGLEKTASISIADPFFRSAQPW
Nature of the assay: Octet isoform binding screen. Background: Biolayer interferometry detects binding as a change in optical thickness at a sensor tip.
On to B1, for which the binding result is “no binding”.

Take B2: the binding result is “no binding”.

B3: the binding result is “no binding”.

B4: the binding result is given as “no binding”.

The target of a further assay is T3, BTN3A3-Fc (recombinant human BTN3A3 Fc-chimera, HEK293-expressed, R&D Systems) (human, UniProt O00478 30-248).
T3 construct: Bought Fc-chimera; Biotinylated for the yeast display selections; not shown: Fc part of the bought Fc-chimera
T3 sequence (O00478 30-248, change not shown): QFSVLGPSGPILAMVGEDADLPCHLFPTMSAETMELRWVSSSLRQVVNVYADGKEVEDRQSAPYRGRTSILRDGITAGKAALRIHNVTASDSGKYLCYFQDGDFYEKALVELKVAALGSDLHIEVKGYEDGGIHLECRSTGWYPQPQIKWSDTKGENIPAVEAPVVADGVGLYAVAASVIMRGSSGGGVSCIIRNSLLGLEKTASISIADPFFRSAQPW
Nature of the assay: Octet isoform binding screen.
On to B2, for which the binding result is recorded as “no binding”.

Take B4: the binding result is listed as “no binding”.

The next assay deals with T1, BTN2A2-Fc (recombinant human BTN2A2 …). The assay can be described thus: Octet isoform binding screen.
As for B5, the binding result was “no binding”.

As for B6, the binding result is recorded as “no binding”.

Regarding B1, the binding result was “no binding”.

B2: the binding result is on record as “no binding”.

For the molecule B3, the binding result is listed as “no binding”.

B4: the binding result is on record as “no binding”.

The next assay concerns the target anti-BTN3A antibody (clone 20.1, Biolegend, catalog #342702). The assay can be described thus: cell-based or functional assay.
Regarding B7, the “IC50 (read off the curve): inhibition of 20.1-mediated reactivation of latent HIV (luciferase RLU)” value was approximately 0.2 µg/mL.

Another assay addresses B7. The assay can be described thus: binding affinity, method not stated (Octet named in text).
As for B5, the Kd (usually the free concentration of one partner at which half of the binding sites on the other are occupied at equilibrium, for simple one-to-one binding) stood at 0.974 nM.

For the molecule B6, the Kd was found to be 2.1 nM.

As for B1, the equilibrium dissociation constant (Kd) is 4.38 nM.

As to B2, the equilibrium dissociation constant (Kd) was found to be 3.94 nM.

For B3, the dissociation constant Kd was 2.76 nM.

For the molecule B4, the Kd is 1.53 nM.

The next assay addresses T2, BTN3A2-Fc (recombinant human BTN3A2 …). Described as above.
With B5, the Kd stood at 2.71 nM.

Regarding B6, the dissociation constant Kd was 4.57 nM.

Another assay concerns the target T3, BTN3A3-Fc (recombinant human BTN3A3 …). The assay is described as above.
Turning to B5, the dissociation constant Kd turned out to be 1.13 nM.

Regarding B6, the Kd was 2.08 nM.

For the molecule B1, the Kd was 8.52 nM.

With B3, the Kd is 1.4 nM.
